Data taken from patent US20210380703A1 (RIGEL PHARMACEUTICALS, published 2021).
Changes are numbered by the printed parent chain. Each block holds one binder with its values, some of them ahead of it.

Legend:
Human ACVR2A [1] = target: T1, Human ACVR2A (human, UniProt P27037 20-135, limits assumed); assay: ELISA
T1 construct: also called activin receptor, type II A
Summary of the method: (§1)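 ELISA measured binding of ACVR2A-specific monoclonal antibodies to human and mouse ACVR2A. Biotinylated goat anti-human kappa light chain served as positive control and human Fc as negative control.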

Mouse ACVR2A [2] = target: Mouse ACVR2A (mouse, UniProt P27038 20-135, limits assumed); assay: ELISA
Summary of the method: as §1

Goat anti-Human Kappa = target: T2, Goat anti-Human Kappa; assay: ELISA, positive control
T2 construct: Positive control of the ELISA; also called biotinylated goat anti-human kappa light chain
Summary of the method: as §1

mouse ACVR2A [3] = target: mouse ACVR2A (mouse, UniProt P27038 20-135, limits assumed); assay: ELISA
Summary of the method: as §1

human ACVR2A [4] = target: T3, human ACVR2A (human, UniProt P27037 20-135, limits assumed); assay: ELISA
T3 construct: also called activin receptor, type II A
Summary of the method: as §1

[5] = target: T4, biotinylated goat anti-human kappa light chain; assay: ELISA, positive control
T4 construct: Positive control of the ELISA
Summary of the method: as §1
Note: test concentration or dose not given here.

T1 sequence (P27037 20-135 limits assumed): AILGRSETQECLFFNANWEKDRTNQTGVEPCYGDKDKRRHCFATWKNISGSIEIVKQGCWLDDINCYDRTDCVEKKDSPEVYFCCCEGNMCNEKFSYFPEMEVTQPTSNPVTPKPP
Chain of Mouse ACVR2A (P27038 20-135 limits assumed): as the sequence (P27037 20-135 limits assumed) above, with K20R, V73I counted along it
T3 sequence (P27037 20-135 limits assumed): as the sequence (P27037 20-135 limits assumed) above
Chain of mouse ACVR2A (P27038 20-135 limits assumed): as the sequence (P27037 20-135 limits assumed) above, with K20R, V73I counted along it

optical density (Human ACVR2A [1]): 2.8 OD
optical density (Mouse ACVR2A [2]): 2.97 OD
optical density (Goat anti-Human Kappa): 2.96 OD
B1: 373_A02 (antibody, V domains shown)
VH: EVQLLESGGGLVQPGGSLRLSCAASGFTFDSYGMNWVRQAPGKGLEWVSGINYNGGYKGYADSVKGRFTISRDNSKNTLYLQMNSLRAEDTAVYYCARSANWHDTALDYWGQGTLVTVSS
VL: DIQMTQSPSSLSASVGDRVTITCRASQSILSYVNWYQQKPGKAPKLVIYATTSLASGVPSRFSGSGSGTDFTLTISSLQPEDFATYYCQQSYNTPLTFGGGTKVEIK

optical density (mouse ACVR2A [3]): 3.71 OD
optical density (human ACVR2A [4]): 3.58 OD
optical density [5]: 3.05 OD
B2: 374_A03 (antibody, V domains shown)
VH: B1 VH with G33S, G50N, K58T, G59S, N101T, A106H
VL: B1 VL with S31T, V33L, V47L, T51A, L54R, N93D, T94N
notes: VH and VL only

optical density (Human ACVR2A [1]): 3.49 OD
optical density (Mouse ACVR2A [2]): 3.47 OD
optical density (Goat anti-Human Kappa): 3.17 OD
B3: 373_C11 (antibody, V domains shown)
VH: B1 VH with D30S, G33S, G55S, K58T
VL: B1 VL with S31T, T51V, L54R, N93E

optical density (Human ACVR2A [1]): 3.54 OD
optical density (Mouse ACVR2A [2]): 3.53 OD
optical density (Goat anti-Human Kappa): 3.16 OD
B4: 373_C06 (antibody, V domains shown)
VH: B1 VH with D30S, G33S, S49A, K58T
VL: B1 VL with L30V, T51A, L54R, N93D

optical density (Human ACVR2A [1]): 3.54 OD
optical density (Mouse ACVR2A [2]): 3.59 OD
optical density (Goat anti-Human Kappa): 3.24 OD
B5: 373_E05 (antibody, V domains shown)
VH: B1 VH with G50N, K58T, G59S
VL: B1 VL with V47L, T51V, L54R, N93D, T94L

optical density (Human ACVR2A [1]): 3.23 OD
optical density (Mouse ACVR2A [2]): 3.57 OD
optical density (Goat anti-Human Kappa): 3.04 OD
B6: 373_D01 (antibody, V domains shown)
VH: B1 VH with G33S, G55S, G59S, A106H
VL: B1 VL with T51A, L54R, N93D, T94S

optical density (Human ACVR2A [1]): 3.48 OD
optical density (Mouse ACVR2A [2]): 3.6 OD
optical density (Goat anti-Human Kappa): 3.08 OD
B7: 374_B06 (antibody, V domains shown)
VH: B1 VH with G33S, S49A, G55S, A106H
VL: B1 VL with S31T, V47L, T51A, L54R, N93D

optical density (Human ACVR2A [1]): 3.47 OD
optical density (Mouse ACVR2A [2]): 3.29 OD
optical density (Goat anti-Human Kappa): 3.26 OD
B8: 373_G12 (antibody, V domains shown)
VH: B1 VH with D30S, G33S, G50N, K58T, G59S
VL: B1 VL with V33L, V47L, T94S

optical density (Human ACVR2A [1]): 3.65 OD
optical density (Mouse ACVR2A [2]): 3.6 OD
optical density (Goat anti-Human Kappa): 3.15 OD
B9: 373_B10 (antibody, V domains shown)
VH: B1 VH with G50N, K58T, G59S
VL: B1 VL with V33L, V47L, T51A, L54R, N93D, T94L

optical density (Human ACVR2A [1]): 2.35 OD
optical density (Mouse ACVR2A [2]): 2.56 OD
optical density (Goat anti-Human Kappa): 2.99 OD
B10: 373_E01 (antibody, V domains shown)
VH: B1 VH with D30S
VL: B1 VL with L30V, V47L, T51A, L54R, A55H, T94N

optical density (Human ACVR2A [1]): 3.1 OD
optical density (Mouse ACVR2A [2]): 3.28 OD
optical density (Goat anti-Human Kappa): 3.12 OD
B11: 373_H01 (antibody, V domains shown)
VH: B1 VH with G33S, S49A, G50N, K58T
VL: B1 VL with V33L, T51A, L54R, N93D, T94N

optical density (Human ACVR2A [1]): 3.44 OD
optical density (Mouse ACVR2A [2]): 3.43 OD
optical density (Goat anti-Human Kappa): 3.24 OD
B12: 373_B06 (antibody, V domains shown)
VH: B1 VH with D30S, S31D, G33S, S49A, K58T
VL: B1 VL with S31T, T51A, L54R, A55H, N93E, T94S

optical density (Human ACVR2A [1]): 3.67 OD
optical density (Mouse ACVR2A [2]): 3.64 OD
optical density (Goat anti-Human Kappa): 3.3 OD
B13: 374_B04 (antibody, V domains shown)
VH: B1 VH with D30S, G33S, G50N, G55S, K58T
VL: B1 VL with L30V, V33L, V47L, T51V, L54R, N93E, T94S

optical density (Human ACVR2A [1]): 3.54 OD
optical density (Mouse ACVR2A [2]): 3.55 OD
optical density (Goat anti-Human Kappa): 3.1 OD
B14: 373_A10 (antibody, V domains shown)
VH: B1 VH with D30S, G55S, K58T, G59S
VL: B1 VL with V33L, T51A, L54R, N93D, T94L

optical density (Human ACVR2A [1]): 3.71 OD
optical density (Mouse ACVR2A [2]): 3.71 OD
optical density (Goat anti-Human Kappa): 3.24 OD
B15: 374_C06 (antibody, V domains shown)
VH: B1 VH with S31D, G33S, G50S, G55S
VL: B1 VL with S31T, V47L, T51A, L54R, T94S

optical density (Human ACVR2A [1]): 3.49 OD
optical density (Mouse ACVR2A [2]): 3.33 OD
optical density (Goat anti-Human Kappa): 3.05 OD
B16: 374_B12 (antibody, V domains shown)
VH: B1 VH with G33S, S49A, K58T, A106H
VL: B1 VL with L30S, V33L, T51A, L54R, N93D, T94N

optical density (Human ACVR2A [1]): 3.3 OD
optical density (Mouse ACVR2A [2]): 3.31 OD
optical density (Goat anti-Human Kappa): 3.11 OD
B17: 373_A08 (antibody, V domains shown)
VH: B1 VH with G50N, K58T
VL: B1 VL with L30V, V47L, T51A, N93S, T94L

optical density (Human ACVR2A [1]): 3.62 OD
optical density (Mouse ACVR2A [2]): 3.71 OD
optical density (Goat anti-Human Kappa): 3.07 OD
B18: 374_A07 (antibody, V domains shown)
VH: B1 VH with D30S, G33S, G55S
VL: B1 VL with V47L, T51V, L54R, N93D, T94L

optical density (Human ACVR2A [1]): 3.24 OD
optical density (Mouse ACVR2A [2]): 3.58 OD
optical density (Goat anti-Human Kappa): 2.94 OD
B19: 374_D01 (antibody, V domains shown)
VH: B1 VH with G33S, G55S
VL: B1 VL with L30I, S31T, V47L, T51A, N93S, T94S

optical density (Human ACVR2A [1]): 3.45 OD
optical density (Mouse ACVR2A [2]): 3.47 OD
optical density (Goat anti-Human Kappa): 3.15 OD
B20: 373_C02 (antibody, V domains shown)
VH: B1 VH with S31D, G33S, G55S
VL: B1 VL with V47L, T51A, L54R

optical density (Human ACVR2A [1]): 3.48 OD
optical density (Mouse ACVR2A [2]): 3.54 OD
optical density (Goat anti-Human Kappa): 3.23 OD
B21: 373_E07 (antibody, V domains shown)
VH: B1 VH with D30S, S49A, G50N, K58T, G59S
VL: B1 VL with S31T, V47L, T51A, N93E

optical density (Human ACVR2A [1]): 3.5 OD
optical density (Mouse ACVR2A [2]): 3.59 OD
optical density (Goat anti-Human Kappa): 3.02 OD
B22: 374_D08 (antibody, V domains shown)
VH: B1 VH with G55S, K58T, A106H
VL: B1 VL with S31T, V33L, V47L, T51A, L54R, A55H, N93E, T94S

optical density (Human ACVR2A [1]): 3.36 OD
optical density (Mouse ACVR2A [2]): 3.5 OD
optical density (Goat anti-Human Kappa): 3.2 OD
B23: 373_C04 (antibody, V domains shown)
VH: B1 VH with D30S, G33S, S49A, G50N, G55S, K58T
VL: B1 VL with L30I, T51V, L54R, T94S

optical density (Human ACVR2A [1]): 3.63 OD
optical density (Mouse ACVR2A [2]): 3.33 OD
optical density (Goat anti-Human Kappa): 3.12 OD
B24: 373_E12 (antibody, V domains shown)
VH: B1 VH with D30S, G33S, S49A, G50N, K58T
VL: B1 VL with T51A, L54R, N93D

optical density (Human ACVR2A [1]): 3.61 OD
optical density (Mouse ACVR2A [2]): 3.61 OD
optical density (Goat anti-Human Kappa): 3.11 OD
B25: 373_D10 (antibody, V domains shown)
VH: B1 VH with G33S, G50N, G55S
VL: B1 VL with V47L, T51A, L54R, N93D, T94L

optical density (Human ACVR2A [1]): 3.05 OD
optical density (Mouse ACVR2A [2]): 3.19 OD
optical density (Goat anti-Human Kappa): 3.19 OD
B26: 373_C08 (antibody, V domains shown)
VH: B1 VH with D30S, G33S, S49A, G50N, K58T, G59S
VL: B1 VL with L30I, V33L, V47L, T51A, T52S, A55Q, T94N

optical density (Human ACVR2A [1]): 3.58 OD
optical density (Mouse ACVR2A [2]): 3.61 OD
optical density (Goat anti-Human Kappa): 3.06 OD
B27: 374_C03 (antibody, V domains shown)
VH: B1 VH with G33S, G55S, K58T, G59S
VL: B1 VL with S31T, V33L, V47L, T51A, L54R, N93D, T94S

optical density (Human ACVR2A [1]): 3.24 OD
optical density (Mouse ACVR2A [2]): 3.56 OD
optical density (Goat anti-Human Kappa): 3.04 OD
B28: 374_E01 (antibody, V domains shown)
VH: B1 VH with D30S, S49A, K58T, G59S
VL: B1 VL with L30S, V47L, T51A, L54R, N93S

optical density (Human ACVR2A [1]): 3.68 OD
optical density (Mouse ACVR2A [2]): 3.73 OD
optical density (Goat anti-Human Kappa): 3.25 OD
B29: 373_D05 (antibody, V domains shown)
VH: B1 VH with D30S, G33S, G55S
VL: B1 VL with V33L, T51A, L54R, N93D, T94S

optical density (Human ACVR2A [1]): 3.12 OD
optical density (Mouse ACVR2A [2]): 3.08 OD
optical density (Goat anti-Human Kappa): 3.27 OD
B30: 373_B12 (antibody, V domains shown)
VH: B1 VH with G50S, G55S, K58T, G59S
VL: B1 VL with L30V, V47L, T51A, L54R, N93D, T94S

optical density (Human ACVR2A [1]): 3.54 OD
optical density (Mouse ACVR2A [2]): 3.56 OD
optical density (Goat anti-Human Kappa): 3.26 OD
B31: 373_G10 (antibody, V domains shown)
VH: B1 VH with D30S, S31D, G50N, G59S
VL: B1 VL with L30V, V47L, T51A, L54R, N93D, T94L

optical density (Human ACVR2A [1]): 3.68 OD
optical density (Mouse ACVR2A [2]): 3.65 OD
optical density (Goat anti-Human Kappa): 3.15 OD
B32: 373_D04 (antibody, V domains shown)
VH: B1 VH with G33S, G55S
VL: B1 VL with V33L, V47L, T51A, L54R, A55H, N93D, T94S

optical density (Human ACVR2A [1]): 3.29 OD
optical density (Mouse ACVR2A [2]): 3.29 OD
optical density (Goat anti-Human Kappa): 3.22 OD
B33: 373_H05 (antibody, V domains shown)
VH: B1 VH with D30S, S31D, G33S, S49A, G50N
VL: B1 VL with S31T, T51A, L54R, N93E

optical density (mouse ACVR2A [3]): 2.96 OD
optical density (human ACVR2A [4]): 3.03 OD
optical density [5]: 3.49 OD
B34: 365_A02 (antibody, V domains shown)
VH: B1 VH with G33S, G50N, K58T, G59S, N101T, A106H
VL: B1 VL with S31T, V47L, T51A, L54R, T94S
notes: VH and VL only

optical density (Human ACVR2A [1]): 3.6 OD
optical density (Mouse ACVR2A [2]): 3.62 OD
optical density (Goat anti-Human Kappa): 3.25 OD
B35: 373_B04 (antibody, V domains shown)
VH: B1 VH with D30S, S49A, G55S
VL: B1 VL with S31T, V33L, V47L, T51A, L54R, N93E
